The source of these data is publication PMC3348966 (Proteins, 2012).

One data set addresses XloA (Thermotoga maritima, UniProt Q9WXT1). The data set is described as follows: p-nitrophenol release at […] nm. The settings on record: data not shown; auxiliary enzyme. The data set is classed as biochemical.
Substrate in data set [1]: CC(=O)O[C@H]1[C@H](Oc2ccc([N+](=O)[O-])cc2)OC[C@@H](O)[C@@H]1O
Briefly: purified protein. The data set is classed as biochemical, Thermotoga maritima. The note with it: 0.1 M sodium phosphate pH 7, 60 °C, excess XloA.

Substrate in data set [2]: CCC(=O)Oc1ccc([N+](=O)[O-])cc1
The data set is described as follows: purified protein. The data set is classed as biochemical, Thermotoga maritima. The note with it: 50 mM citrate-phosphate pH 6, 70 °C (standard assay).

Substrate in data set [3]: CC(=O)Oc1ccc([N+](=O)[O-])cc1
The data set is described as follows: purified protein. The note with it: 50 mM citrate-phosphate pH 6, 70 °C (standard assay). The data set is classed as biochemical, Thermotoga maritima.

Substrate in data set [4]: CC(=O)O[C@@H]1[C@@H](O)[C@H](Oc2ccc([N+](=O)[O-])cc2)OC[C@H]1O
The data set is described as follows: purified protein. The data set is classed as biochemical, Thermotoga maritima. The note with it: 0.1 M sodium phosphate pH 7, 60 °C, excess XloA.

Substrate in data set [5]: CC(=O)O[C@@H]1CO[C@@H](Oc2ccc([N+](=O)[O-])cc2)[C@H](O)[C@H]1O
The data set is described as follows: purified protein. The data set is classed as biochemical, Thermotoga maritima. The settings on record: 0.1 M sodium phosphate pH 7, 60 °C, excess XloA.

Data set [6] deals with the molecule itself. The data set is described as follows: crystal structure.
Data set [7] deals with the molecule itself. Briefly: crystal structure. This is another data set of the same source.

Read-outs that look alike come from different tables or passages of the source.

Take `O=[N+]([O-])c1ccc(O[C@@H]2OC[C@@H](O)[C@H](O)[C@H]2O)cc1` [4-nitrophenyl β-D-xylopyranoside]: at XloA, the “p-nitrophenol release at 405 nm” value is on record as “its activity was confirmed by measuring release of p-nitrophenol from the substrate pNP-Xyl”.

B1: TM0077 (Thermotoga maritima MSB8) (protein)
chain: MAFFDLPLEELKKYRPERYEEKDFDEFWEETLAESEKFPLDPVFERMESHLKTVEAYDVTFSGYRGQRIKGWLLVPKLEEEKLPCVVQYIGYNGGRGFPHDWLFWPSMGYICFVMDTRGQGSGWLKGDTPDYPEGPVDPQYPGFMTRGILDPRTYYYRRVFTDAVRAVEAAASFPQVDQERIVIAGGSQGGGIALAVSALSKKAKALLCDVPFLCHFRRAVQLVDTHPYAEITNFLKTHRDKEEIVFRTLSYFDGVNFAARAKIPALFSVGLMDNICPPSTVFAAYNYYAGPKEIRIYPYNNHEGGGSFQAVEQVKFLKKLFEKG
With B1, the Km (as a rule, the substrate concentration at which the rate is half of its maximum) in the data set “purified protein [1]” was 3.6 ± 0.5 mM; in the data set “purified protein [2]” it was 0.137 ± 0.013 mM; in the data set “purified protein [3]” it was 0.185 ± 0.026 mM; in “purified protein [4]”, 4.2 ± 0.4 mM; in the data set “purified protein [5]”, 4.0 ± 0.1 mM. Also, the kcat (as a rule, the number of substrate molecules converted per active site and unit of time at saturation) in “purified protein [1]” is 76.1 ± 19.2 s⁻¹; in “purified protein [2]”, 41.3 ± 1.1 s⁻¹; in the data set “purified protein [3]”, 57.5 ± 2.2 s⁻¹; in the data set “purified protein [4]”, 70.1 ± 7.7 s⁻¹; in “purified protein [5]” it was 78.6 ± 12.9 s⁻¹. Moreover, the kcat/Km (commonly the turnover number divided by the Michaelis constant) is 21100 ± 6100 M⁻¹ s⁻¹ in “purified protein [1]”; 302000 ± 29700 M⁻¹ s⁻¹ in “purified protein [2]”; 311000 ± 45300 M⁻¹ s⁻¹ in “purified protein [3]”; 16700 ± 2400 M⁻¹ s⁻¹ in “purified protein [4]”; 19700 ± 3300 M⁻¹ s⁻¹ in the data set “purified protein [5]”.

B2: TM0077-paraoxon complex (TM0077 with DEP-modified Ser188) (enzyme, Thermotoga maritima, UniProt Q9WXT2 1-325, looked up)
chain: MAFFDLPLEELKKYRPERYEEKDFDEFWEETLAESEKFPLDPVFERMESHLKTVEAYDVTFSGYRGQRIKGWLLVPKLEEEKLPCVVQYIGYNGGRGFPHDWLFWPSMGYICFVMDTRGQGSGWLKGDTPDYPEGPVDPQYPGFMTRGILDPRTYYYRRVFTDAVRAVEAAASFPQVDQERIVIAGGSQGGGIALAVSALSKKAKALLCDVPFLCHFRRAVQLVDTHPYAEITNFLKTHRDKEEIVFRTLSYFDGVNFAARAKIPALFSVGLMDNICPPSTVFAAYNYYAGPKEIRIYPYNNHEGGGSFQAVEQVKFLKKLFEKG
modifications: diethyl-phosphate (DEP) moiety covalently bound to the Oγ atom of Ser188
As for B2, the stoichiometry N (as a rule, a count of units in the complex or per binding partner) in “crystal structure [6]” is 6.

B3: TM0077-PMSF complex (TM0077 with PMS-modified Ser188) (enzyme, Thermotoga maritima, UniProt Q9WXT2 1-325, looked up)
chain: MAFFDLPLEELKKYRPERYEEKDFDEFWEETLAESEKFPLDPVFERMESHLKTVEAYDVTFSGYRGQRIKGWLLVPKLEEEKLPCVVQYIGYNGGRGFPHDWLFWPSMGYICFVMDTRGQGSGWLKGDTPDYPEGPVDPQYPGFMTRGILDPRTYYYRRVFTDAVRAVEAAASFPQVDQERIVIAGGSQGGGIALAVSALSKKAKALLCDVPFLCHFRRAVQLVDTHPYAEITNFLKTHRDKEEIVFRTLSYFDGVNFAARAKIPALFSVGLMDNICPPSTVFAAYNYYAGPKEIRIYPYNNHEGGGSFQAVEQVKFLKKLFEKG
modifications: phenylmethyl sulfonyl (PMS) moiety covalently bound to the Oγ atom of Ser188
As for B3, in “crystal structure [6]”, the “stoichiometry N” value worked out at 6.

B4: native TM0077 (acetyl esterase from Thermotoga maritima) (enzyme, UniProt Q9WXT2 1-325, looked up)
chain: MAFFDLPLEELKKYRPERYEEKDFDEFWEETLAESEKFPLDPVFERMESHLKTVEAYDVTFSGYRGQRIKGWLLVPKLEEEKLPCVVQYIGYNGGRGFPHDWLFWPSMGYICFVMDTRGQGSGWLKGDTPDYPEGPVDPQYPGFMTRGILDPRTYYYRRVFTDAVRAVEAAASFPQVDQERIVIAGGSQGGGIALAVSALSKKAKALLCDVPFLCHFRRAVQLVDTHPYAEITNFLKTHRDKEEIVFRTLSYFDGVNFAARAKIPALFSVGLMDNICPPSTVFAAYNYYAGPKEIRIYPYNNHEGGGSFQAVEQVKFLKKLFEKG
Regarding B4, in the data set “crystal structure [6]”, the “stoichiometry N” value amounted to 6.

B5: selenomethionine-substituted TM0077 (acetyl esterase from Thermotoga maritima) (enzyme, UniProt Q9WXT2 1-325, looked up)
chain: MAFFDLPLEELKKYRPERYEEKDFDEFWEETLAESEKFPLDPVFERMESHLKTVEAYDVTFSGYRGQRIKGWLLVPKLEEEKLPCVVQYIGYNGGRGFPHDWLFWPSMGYICFVMDTRGQGSGWLKGDTPDYPEGPVDPQYPGFMTRGILDPRTYYYRRVFTDAVRAVEAAASFPQVDQERIVIAGGSQGGGIALAVSALSKKAKALLCDVPFLCHFRRAVQLVDTHPYAEITNFLKTHRDKEEIVFRTLSYFDGVNFAARAKIPALFSVGLMDNICPPSTVFAAYNYYAGPKEIRIYPYNNHEGGGSFQAVEQVKFLKKLFEKG
modifications: selenomethionine-substituted (selenomethionine in place of methionine)
Turning to B5, in “crystal structure [7]”, the “stoichiometry N” value worked out at 6.
